The source of these data is the DeepSol protein solubility set.

This series is described as follows: soluble on expression in E. coli; label from the status in PepcDB or PDB records.
“KSTVEKSTVGQKVAIVREDTGTIAELAEKALGNMVDIVYAGSDLKEAEEAVKKEKAPAIIVIPKGFSQSLESGEKARLEIVWYLRGTGLSEAVSTGTISSLIESLKVQLASFLLNDPKKAQLLFDPLEIVQHTYLRGSLFKNHSPEAIMNVFYSQN”: the “soluble on expression in E. coli” value was “soluble”. Turning to “KAQKLNEQHQLILSKLLREEDNKYCADCEAKGPRWASWNIGVFICIRCAGIHRNLGVHISRVKSVNLDQWTAEQIQCMQDMGNTKARLLYEANLPENFRRPQTDQAVEFFIRDKYEKKKYYDKNAIAI”, the “soluble on expression in E. coli” value was “soluble”.

As to “MAHHHHHHMLRRVVAPAPVSATAACAGQARSIYEYKFGQTPLTQPFGGTSRLPPGPSSNPAPVAPGKVEITKLHNGARVITHNLGGPSVSVGAYILAGPAYDPPSAPGAGAMMHLALTTSNYNNSLFQLDRNIRSVGAAQSHFEKHKHYIGIRIDARADKWKSAASTSSFSQRRQLQNQKQAEQQFSLNLVQDNIFTCIAAPRFHEPDVERFRDTIDNQVEELRWQCPAEYAKQMLETVAFYREPLGNPRFVPAMSNSIISSSVLLEQYSRYIVPSRVVVAGVNVDHAALIAEYENTPFPHSASAPHHARAQPCVVNWKDEASQYTGGERHDHEDRPKVMGTKPDMDPESIIAVGWLAYGKDRKMVKDHAASMVVGALMDIGFSGCMRCGAPDEMHEHTGLRAFYNPYQTAGLIGFTAKAEPQAAVRMVTDAVKMVRASQASVADSMLSVAKKMAKTQFMVQTVDTIRDYCDYLGTCLAVDSDSTLATSVEEVVDAINSVNAADVKRVYEKMFSNKTSLYGHGEMLGFPSMRQMGL”, the “soluble on expression in E. coli” value is reported as “not soluble”. In the case of “MPEISRDEVAHLAKLSRLALTDEELDRFAEQIDGIIGNVSAVQQVAAEGVEPMSHPHSIKTTMREDVVEQILTPEQALDQAPAVDQQRFVVPQILGEQD” it was “not soluble”.

“MSATAKHDSNASPNSDSEDGHHHNNKKECAIEYLKARLNSASAVACGYLQAFVSKTQDFAKVCFLELQNPVVLVNLLLHSSVVCYLCNGYANHNARFLKGKPNSTVLATTAGALGLLTLDGIISKKYYSRYDKK”: the “soluble on expression in E. coli” value is “soluble”. Regarding “MGSDKIHHHHHHMKHEPLELGLKIEDAILVNEKLKDFVVYKSGKPRIDFKNKEAMKEYNIAILGHVFGLDMDFHEDALIPTPINRYLFIKNIFDEKDDIKDVLEIGTGSGIISILIAKYFECNVTATDTVSDYLKIAKDNISKNNLTSKINLIDSKGKIIFDIPELKNKKFDLIISYPPYYADNSVASKRSFGGAFASEVELIGGGAYGEVFSQKIIEEGMDHLNNGGIVAIMFPEKPFERRKFVEDKILELGLTLEKSEITTGKRIRHIIKAKKE”, the “soluble on expression in E. coli” value is on record as “not soluble”. In the case of “MGSDKIHHHHHHMFVPAPDATITNCRNCPLRRKPLFLPFSDSELSFMEQFKVGELVVAPGVTLLEEGQGSAHLFTVLSGLGIRSTMLENGRRQVINFLFPGDFIGLQAGLAGEMRHSVESTTTMVLCVFNRADLWDLFREEPERAYDLTWIAAVEEHFLGETIASLGQRDATERLAWALLRIHERLSAIGLAERGRVPMPWRQQDLADALGLSLVHTNKTIRRLRETGHALWEGGTLFVDRERLATLALADPDRPRRRPLI” it was “not soluble”.

For “MGFPKEGEKVQIHSYKHNGSIHRMWEETTILKGTQSLVIGANDRTVVTESDGRTWITREPAICYFHANYWFNVIGMLREDGVYYYCNLSSPFAYDPEALKYIDYDLDIKVYPDMTYTLLDEDEYEKHSEIMQYPPVIDTILKRNVAHLTQWIHQRKGPFAPDFVDMWYERYLMYRN”, the “soluble on expression in E. coli” value is given as “not soluble”. Next, “MSLRQDILLNNNWNFRFSHQVQGDTRRVDLPHTWNAQDALAGKIDYKRGIGNYEKALYIRPEWKGKRLFLRFDGVNSIADVFINRKHIGEHRGGYGAFIFEITDLVKYGEKNSVLVRANNGEQLDIMPLVGDFNFYGGIYRDVHLLITDETCISPLDYASPGVYLVQEVVSPQEAKVCAKVNLSNRAADGTAELQVLVTDGTKVICKESRNVSLKQGADILEQLPLLIQKPRLWNGCEDPFMYQVSISLHKDGKQIDSVTQPLGLRYYHTDPDKGFFLNGKHLPLHGVCRHQDRAEVGNALRPQHHEEDVALMREMGVNAIRLAHYPQATYMYDLMDKHGIVTWAEIPFVGPGGYADKGFVDQASFRENGKQQLIELIRQHYNHPSICFWGLFNELKEVGDNPVEYVKELNALAKQEDPTRPTTSASNQDGNLNFITENIAWNRYDGWYGSTPKTLATFLDRTHKKHPELRIGISEYGAGASIYHQQDSLKQPSASGWWHPENWQTYYHMENWKIIAERPFVWGTFVWNMFDFGAAHRTEGDRPGINDKGLVTFDRKVRKDAFYFYKANWNKQEPMIYLAEKRCRLRYQPEQTFMAFTTAPEAELFVNGVSCGKQKADTYSTVVWKNVKLTSGENIIRVTTPGKKPLTDEVTVEYKEDREGHHHHHH”: “soluble”. As to “MGSDKIHHHHHHMDPLSSSDPARLASEQRRLRLQVLGLNTVEAEATFDRIARLAASFTQSPLAMVNFINDERQMFRGMYVPSGSPDDKVSPESGGIAFDLSNLSREAPGDYGFCPHVVAQGSQLALDDVFDYPRFKGNPLVNDLGVRSYLGTPLRDNTGMILGTVCVADMKPRTWDRGLREGMQELTETLLSDFKLRDSLLAQQQELFAVFDGAPFPIMLTEGPDHLLRYANGKQGSAFGLVPQFSPGRHVLPGLEAIGVFGAMDDAFHTGQAATLARASIQTYDSHTLQDFNFLCTPVRTSPAAPISGVLTVAMNTTGQDFAGSEQRAFAANVQERFERLGAGGLPGGMPGQRAESAGYRG”, the “soluble on expression in E. coli” value is “not soluble”. Next, “MGSDKIHHHHHHMIVLLREINRYCKEKATGKRIYAVPKLWIPGFFKKFDEKSGRCFVDPYELGAEITDWILNQSREWDYSQPLSFLKGEKTPDWIKRSVVYGSLPRTTAAYNHKGSGYYEENDVLGFREAGTFFKMMLLLPFVKSLGADAIYLLPVSRMSDLFKKGDAPSPYSVKNPMELDERYHDPLLEPFKVDEEFKAFVEACHILGIRVILDFIPRTAARDSDLIREHPDWFYWIKVEELADYTPPRAEELPFKVPDEDELEIIYNKENVKRHLKKFTLPPNLIDPQKWEKIKREEGNILELIVKEFGIITPPGFSDLINDPQPTWDDVTFLRLYLDHPEASKRFLDPNQPPYVLYDVIKASKFPGKEPNRELWEYLAGVIPHYQKKYGIDGARLDMGHALPKELLDLIIKNVKEYDPAFVMIAEELDMEKDKASKEAGYDVILGSSWYFAGRVEEIGKLPDIAEELVLPFLASVETPDTPRIATRKYASKMKKLAPFVTYFLPNSIPYVNTGQEIGEKQPMNLGLDTDPNLRKVLSPTDEFFGKLAFFDHYVLHWDSPDRGVLNFIKKLIKVRQQFLDFVLNGKFENLTTKDLVMYSYEKNGQKIVIAANVGKEPKEITGGRVWNGKWSDEEKVVLKPLEFALVVQE”: “not soluble”; “SSDLEDDETPQLSAHALAALQEFYAEQKQQIEPGEDDKYNIGIIEENWQLSQFWYSQETALQLAQEAIAAVGEGGRIACVSAPSVYQKLRELCRENFSIYIFEYDKRFAMYGEEFIFYDYNNPLDLPERIAAHSFDIVIADPPYLSEECLRKTSETVKYLTRGKILLCTGAIMEEQAAELLGVKMCTFVPRHTRNLANEFRCYVNYDSGLDCGI”: “soluble”. In the case of “QSTVKIILEEDTETLDEVVVVGYGVQKKSDVTGAMARVTSKVIEDRPVQNALQAMQGRVTGVDITSNNRPGELGDIRIRGNRSLTADNNPLYVIDGIPMSAGSIADVNPSDIESMEILKDASATAIYGSRGANGVILVTTKKGKTGR” it was “not soluble”; in that of “MGSDKIHHHHHHMIYYGTMFDHKVRFSIVRMREVVEEARNRHALSYLATVVLGRALIGAALVTPWLAEKERWTLDIEGNGPIRRVVAQSTSEFTVRGYVANPKVELPLNEKGKFDVAGAIGQGVLRVVRDLGLKTPFVSQVPLVSGEIAEDLAYYFAVSEQIPSAFSIGVLVDSDGVKIAGGFAVQIIDRTLEQEKVEMIEKNIKNLPSISKLFQEAEPLDVLERIFGEKVGFVETAEIKYKCDCNREKAKNALLVLDKKELEDMRKEGKGEVVCKWCNTRYVFSEEELEELLKFKVDDSGS”, “soluble”; in that of “MNKEQLQQMRQAPGFVGALDQSGGSTPKALKAYGIQPDAYQSEEEMFDLIHQMRTRMITSPAFATGKIIGVILFERTMRGKIEGMPTADFLWEKRHIVPFLKVDKGLQDEANGVQLMKPFPELGKLCEEAVGYHVFGTKMRSVIKQANEQGIRDIVEQQFQWGKEILSHGLVPILEPEVDIHCPEKAKAEEILKRELLAQLDKMTEPVMLKITIPTVDNFYKEIIEHPMMLRVVALSGGYSREQANELLSRNHGVIASFSRALVEGLSARQTDAEFNAMLEASIEDVYQASIK”, “soluble”. Next, “MGSDKIHHHHHHMHDYYQLVTVADLPQDNRQILDTLTAIGAGKLPNDLRLLNYYRSIPVNYGATVESVERGSVELTVNQQQAIVMQLEKQVFLKSGHFPKDVLAAVTYVNIDKSVAILANFAYAVIRSERRQFVRVEVKDKIEASFSGDGFTVAGLLNDISLGGVAISATIPTHPDAGIKGKVTLRLPGGPFEMPAQVLRVIPAYYTDLCIIEIQPDNRTEKGISQYIFQRQVEIIRELKDSIF”: “not soluble”; “MGSDKIHHHHHHMSKIGETPLDMGLKDAIIGIFIWNKEKGIFEPFENRLRKKARALLEYYTDLANDELKPYVISKTIIDNVVDEIKDKTLIPLPNEPLRVAFPNCTLEWKISHGRYVPSFVLAEERTPEHFAFHYIPHKIHLEELVKINEEVLSARDIPIDLIEDLARRLCPKSLEVFKQWANEKWVTLFEIIGYTLFPKIEFRKAFMILGPRGTGKSTFINLIKKLLGRGNVVNIPLHILFGDKNRFVLAELYHKLVNAVSETKEYNLDDMDTLKVLTGGDRITADVKFKDPITFTPYAKLVIASNKPPTIRDKNDMAFWHRWLIIEFPNQFEDNTAWGDKTFTEDELEGILTVSILAFSRVLLHGKFDFEQTEEEVRGIWLSTIDYVYKFVKEKLKHGEIMITKNADDYVRVKELYRMYLEYCSTNGYNATTYKGFVRRLRDYFNLTVVMKNVEGKRFRAVVGIKINTVQTNETTGGDYGEFLNYILKNNHMIKEFADLVRDFGSTEKANVFIDFCTKKNMCFSRGIDAWEISIQPRGFSFL”: “not soluble”. Regarding “MGSDKIHHHHHHMLIFVMKPRSNPVTGGFHSDKFANWNTMPLETLPVISLAGEPDALSRELGESFRTFGFAMVRDHGIDPDLIARAWDLTAQFFALPEAEKRSYYLDGLAGARGYTPFGTEIAKGARLHDLKEFWHVGRDLPAGHPLSASMPPNVWPARPEGFRQTFETLYGEFDKVGARILSRIAVWLGLDENWFDPAIEDGNSVMRLLHYPPVPDAESGAIRAGAHEDINLITLLLGAEEAGLELLSRQGEWIGVSPPEGALVVNIGDMLQRLTNHVLPSTTHRVRNPEGERARFSRYSMPFFLHLRSDFPFVTLPQCISDENPDRYPVSITADDYLQERLREIGLRK”, the “soluble on expression in E. coli” value is reported as “not soluble”.

As to “MQQLLISILEDLNNTSTDIIASAVISTDGLPMATMLPSHLNSDRVGAISATLLALGSRSVQELACGELEQVMIKGKSGYILLSQAGKDAVLVLVAKETGRLGLILLDAKRAARHIAEAI”, the “soluble on expression in E. coli” value is listed as “not soluble”. Consider “AQSVPPGDINTQPSQKIVFNAPYDDKHTYHIKITNAGGRRIGWAIKTTNMRRLSVDPPCGVLDPKEKVLMAVSCDTFNAATERLNNDRITIEWTNTPDGAAKQFRREWFQGDGMVRRKNLPIEYNL”, for which the “soluble on expression in E. coli” value is recorded as “soluble”.
